# In the DeepSol protein solubility set:
# Assay: soluble on expression in E. coli; label from the status in PepcDB or PDB records
row,Sequence,soluble on expression in E. coli
1,MSDQIIARVSQSLAKEQSLESLVRQLLEMLEMVTDMESTYLTKVDVEARLQHIMFARNSQKMYIPENFTVSWDYSLCKRAIDENCFFSDEVPDRWGDCIAARNLGITTFLSTPIHLPDGSFYGTLCAASSEKRQWSERAEQVLQLFAGLIAQYIQKEALVEQLREANAALIAQSYTDSLTGLPNRRAIFENLTTLFSLARHLNHKIMIAFIDLDNFKLINDRFGHNSGDLFLIQVGERLNTLQQNGEVIGRLGGDEFLVVSLNNENADISSLRERIQQQIRGEYHLGDVDLYYPGASLGIVEVDPETTDADSALHAADIAMYQEKKHKQKTPFVAHPALHS,soluble
2,MQLTPLQQAKPEKEEISPYAINNILSSTQSSPDNGNEADDKENSSVRRNTFPASSASTKKPRGTPYDRTNTPMTVVPQMPQFAPDFSNYNLTMNAWSEFFKKDRCMVCGDNSTGYHYGVQSCEGCKGFFRRSVHKNIAYVCTKGENCTFSYENCAANRGVRTRCQACRFAKCLAVGMNRDNVRVNKETDKDVKPSVASPNFEMTSQVKELTAAFVANMPCSTHLTSGTHAIGAIKKFIESVPALSSLLPKDEKALEMSIQKVMSGILAIRAAFTFDPITFYSCENPVNLLRGGIRNTVFNDCEVALLSGIHILQIVNGGVAEIFTSYCQGLRHQLSQTHLQEIGLCDRLLMRLGPYLNQ,not soluble
3,MNMKNELHVISNGHMPFEELVNVAMQIESEIDYLHIREREKSTKELYEGVESLLMEGFPASKIVINDRIDIAILLNIPRVQLGYRSTDVKSVKEKFSYLHVGYSVHSLDEAIVAFKNGADSLVYGHVFPTDCKKGVPARGLEEISDIARCLSIPITAIGGITPENTVDVLTNGVSGIAVMSGIVSSSNPYSKAKSYKESIRKWAEKHV,not soluble
4,MGSDKIHHHHHHMKMIIGRKIGMTRVFVGNDSVPVTVIKAGPCVVVQKKTVEKDGYNAVQLGFEKAKKVNKPLAGHFKKFGVEPMKILREFRVENPDEYEPGQVIKVDVFEKGEYVDVTGWTKGRGFAGAMKRWGFSGGPKSHGSKFHRELGSVGQHTEPAKIWKGKKMPGRYGNERVTVRNLQVVDIDPENDLLVVKGGVPGARGGLVLIRSAKAPKK,not soluble
5,MDFLERLKSLWPDNAKPADFYNKIDMSASGFSRVWKDGAIPTADYLIKIQEVTGCDLNWLLTGQGSPYMNKGQAVEVRTHTDGTATDTLGNP,not soluble
6,MKVRAQVPTVKNATNFNMVADSKTAVGSTLENLKAAIAGETGAHAKYTAFAKAAREQGYEQIARLFEATAAAELIHIGLEYALVAEMEPGYEKPTVAAPSAYSCDLNLISGANGEIYETSDMYPAFIRKAQEEGNSKAVHVFTRAKLAESVHAERYLAAYNDIDAPDDDKFHLCPICGYIHKGEDFEKCPICFRPKDTFTAY,soluble
7,MQPQSVLHSGYLHPLLRAWQTATTTLNASNLIYPIFVTDVPDDIQPITSLPGVARYGVKRLEEMLRPLVEEGLRCVLIFGVPSRVPKDERGSAADSEESPAIEAIHLLRKTFPNLLVACDVCLCPYTSHGHCGLLSENGAFRAEESRQRLAEVALAYAKAGCQVVAPSDMMDGRVEAIKEALMAHGLGNRVSVMSYSAKFASCFYGPFRDAAKSSPAFGDRRCYQLPPGARGLALRAVDRDVREGADMLMVKPGMPYLDIVREVKDKHPDLPLAVYHVSGEFAMLWHGAQAGAFDLKAAVLEAMTAFRRAGADIIITYYTPQLLQWLKEE,soluble
8,MGSDKIHHHHHHMTKMLRTYKFRIYPTREQEEKLAKHFGHTRFVYNFFLNYANIIYRVMERPTYYNEWASVLVKLKKTNKYSWLNEVNSQALQQSLKDLERAFKNFFKKQAGYPKFKKKKFSRQTFRIPQHIQLYIKEDNPKYGCIFVPKFKEGIKVRLHRKLPKDGKIKQATFIKTATNKYYAAIVFEVQDAEVQNTSTGILGIDLGIKDTITLSDGKKYKMPDLSKYERQIKRLHRRLSRKQRGSKNWEKARLCLAKLYEKIVNIKNDWLHKITHDLVSESQAGKIVVEDLNIKGMVQNHRLARHIHMQSWRRFLELLEYKAKRCGIEVIKANRYYPSSQMCSECGYINKEVKDLSVREWTCPVCGAHHDRDVNAAKNLVRYGLMLSIGREPSEFTPVDSALAAEPERGLRAITG,not soluble
9,MAHHHHHHMEYAQKSARLPRSAEEKEQWKRVIVILEHCPLQTIQTDRGFELLSDRHRSYHARHNQDPADWRPDVVHQCLLHLQDSPLNRAGMLEVFLRTKKQVCIAVDPRLRVPRNVRLFEKMMVSLLFKLKVRASTGYLSLLRVVGNPITDHIPAGTRLYRVEKDGDLIDPFTFCASCGYAADVLDAQRTDRKISLARRRLTSSTSGTLEETTAEAGTEEFAKAQRKAAERRQFQPFAFIIGGMSRGDVSVDYARPGEVSSIRLGDRGMSAAAVISTLLHGFEEEWLREDNEAC,soluble
10,MGSDKIHHHHHHMNPADNILWGNIIKVHGVKGEVLVQVFSDDLTDYETLESVFVEIKQKQIPFFLSTFNFATQKRCILSFEDVTTVEQAKPLVGADIYIPVSKMAEADESRLSYQAIIGFEVMDTIQGKLGVISNFFQKTGQDLLMMDYQDAEILIPVTEEIVHSVDVKTKQVITTLPEGLIEIYLNEDASEPDAD,not soluble
11,MPRLALRQYNFYYRVNGEKAEELLKEYGEDGDFLLRYSESNPQNFSISVRVAEDKILHIKVTKYESDMLSIFEDERTTPNQFGSITELAEFYMEFPEKLREKNGLFLELKKPVYVPYHLEACAEEQRRTQLYRWWHGNLPASSANKLLQTEKNGTYLLRASQHIPGALVISAKTEGQVVHLTIYQDPSTGRFNIDGDRTKFQSAWLLIDSYSKNPIVEKGEASRVLYLEEPLFNTFIEADLFVDRFEIIRRPINPRESMEKTGISEEFDRLSQEALPAEQYLSKREGRRPVNAEKNRYKNIVPFDHTRVILTDRPNTPGSDYINASYVRFENSQRTKNVTFACEKSFIATQGCLETTISDFWSMVWQENSRVIVMPTMENERKEKCARYWPAEVNKPEVHGDISLTCTIERKVQRAVSDEVKAELEQEKTNRIAKGLVPEAELNGDGISYILRTLVMKKGKDTREIRQLQYLTWPDHGCPLHPYAVLNFLEDVDREYDYFNAQPIAASLPQGPIVVHCSAGIGRTGTVLVLDALLNQVKKVGLLCPMDVYKMVKYVRTYRSGLVQTEQQYQFLYKALAFYLKNNNPYPVKSFIDGDTDAFDFPRRLRPTPNASRPSSARQVTSSRPSSSASSRTSHSRPRTGPQAEPIFERSTSSTSSSSTLLKSTKK,not soluble
12,MGSSHHHHHHSSGLVPRGSRHSTLDFMLGAKADGETILKGLQSIFQEQGMAESVHTWQDHGYLATYTNKNGSFANLRIYPHGLVLLDLQSYDGDAQGKEEIDSILNKVEERMKELSQDSTGRVKRLPPIVRGGAIDRYWPTADGRLVEYDIDEVVYDEDSPYQNIKILHSKQFGNILILSGDVNLAESDLAYTRAIMGSGKEDYTGKDVLILGGGDGGILCEIVKLKPKMVTMVEIDQMVIDGCKKYMRKTCGDVLDNLKGDCYQVLIEDCIPVLKRYAKEGREFDYVINDLTAVPISTSPEEDSTWEFLRLILDLSMKVLKQDGKYFTQGNCVNLTEALSLYEEQLGRLYCPVEFSKEIVCVPSYLELWVFYTVWKKAKP,soluble
13,MLDKLDAALRFQQEALNLRAQRQEVLAANIANADTPGYQARDIDFASELKKVMQRGRDATSVVALTMTSTQHIPAQALTPPTAELQYRIPDQPSLDGNTVDMDRERTQFADNSLQYQMSLSALSGQIKGMMNVLQSGN,not soluble
14,MPHNPIRVVVGPANYFSHPGSFNHLHDFFTDEQLSRAVWIYGKRAIAAAQTKLPPAFGLPGAKHILFRGHCSESDVQQLAAESGDDRSVVIGVGGGALLDTAKALARRLGLPFVAVPTIAATCAAWTPLSVWYNDAGQALHYEIFDDANFMVLVEPEIILNAPQQYLLAGIGDTLAKWYEAVVLAPQPETLPLTVRLGINNAQAIRDVLLNSSEQALSDQQNQQLTQSFCDVVDAIIAGGGMVGGLGDRFTRVAAAHAVHNGLTVLPQTEKFLHGTKVAYGILVQSALLGQDDVLAQLTGAYQRFHLPTTLAELEVDINNQAEIDKVIAHTLRPVESIHYLPVTLTPDTLRAAFKKVESFKA,soluble
15,MKILHTSDWHIGKTLYGHKRYDEFEAFFSWLVETIEQEQVDVLLIAGDIFDTSTPGNRSQQLYYRFLHRVAASACRHVVIIAGNHDSPSFLSAPRELLRALDVHVTGSLSGNPADEILVLHDPKGDAELIVCAVPHLRDRDIRTAEAGESMEDKSRKLVEGIRDHYAEVINLARLQRTALSSSIPIIAMGHLFVAGGQTVEGDGVRELYVGSLAHVPAGIFPPDIDYLALGHLHVPQRVNGSSVMRYSGSPLPIGFGEADQEKSVCLIEFNRQ,not soluble
16,MLVSEMHGEVEAVKVGTEVQGRVLHWVYLYYYRNLLFDAGCPNTAQEVFEHFKGREIKAVLITHYHEDHIGAVNLFKEITDVYVPEESLEILRNPPDIPKYRKIGWGQPEKIEGVKVAKEVMKFDDVEVRMIKTPGHSFDHVSYLVDDKLFCGDLVINTAQMVCMREENLLKTIESIEKVLKYDFNYAYTGVGVASRDEVVEYLNYLKGLKEKAEMLYAEGKTIDEIVAACFPNPSQKAILMEFVSEKEWARENMVKSLLGLPRE,not soluble
17,MGSDKIHHHHHHMRDFLKSAFGRSKPKQLRILPQDVTIEIGQGQTLLEAALANGIAYPHDCTVGTCASCKTRLKQGRVREATPFGYTLSKDELDAGYILACQAFPKDELTVVEIDSSAGDLMPAEKYTANIIATEPLTHDILRVTVQTDRAVSYAAGQYANLRKAGGGRARSYSFANAPQRKGRTLLEFYIRKVPGGEFTESLFGGELKGVSLEMEAPLGTFHLRAGDSHMVCIAGGSGLAPLVSILEHARGNRIKRDCTLLFGARTQADLYQLDAIGSIASNWQGDFRFIPVLSDEPLDSDWKGARGLVTDHIAPGFCEGGEGYLCGPPLMIDAAIASLAKHGIPLEKVFYDKFTDSRDR,not soluble
18,MMDEKLNFSYLFGSNAPYIEELYEAFLENPDAVDEKWKQYFTDLSKQPGTVAVDVAHTPIRESFVTLAKKKIASAVAGGADEAMLKKQVSVLRLISAYRIQGVGAAQLDPLKRIPPRDIEALDPKFHGLSDADMALQFNMGEGDFANRGKLPLSQIISNLKQTYCGHIALEYIYIPNTEERRWVRNYFESVLSTPHYNADQKRRILKEMTAAETLERYLHTKYVGQKRFGVEGGESAIAGLNYLIQNAGKDGVEEVIIGMAHRGRLNVLVNILGKKPGDLFAEFEGRAEIKLPSGDVKYHMGFSSDIATPHGPMHVSLAFNPSHLEIVNPVVEGSARAKQKRLGENGRDKVLPVLIHGDSAFIGLGVNQATFNLSKTRGYTTGGTVHIVINNQIGFTTSDIRDTRSTVHCTDIAKMVSAPVIHVNGDDPERVCFAIQAALDYRKKFHKDIVIDVVCYRKWGHNEGDDPTLTQPMMYKKVSQHPGARALYTEQLIAEGVVTQAEADGYIQAYRDALDKGEHVEQTTLSNFQRTQIDWSKYQGKDWREHIETGLPAADIERLTEKFTAVPEGFALHPTAKRVIEARKAMASGKQAIDWGMAETLAYASLVTKGHGVRISGEDSGRGTFSHRHAVLHDQKREKWDDGTYVPLRHMGEGMGEFLVIDSILNEEAVMAFEYGFACSAPDKLTIWEAQFGDFANGAQVTIDQFLSSGETKWGRLCGLTTILPHGYDGQGPEHSSARVERWLQLCSENNMQVIMPSEASQMFHLLQRQVLGSYRKPLVIFMSKRLLRFKGAMSPLENFTEGSTFRPVIGDTAERASNDSVKRVVLCAGQVYYDLEAGRAERKLEDDVAIVRVEQLYPFPYDEVKAELAKYPNAKSVVWAQEEPKNQGAFYQIRHRIEDVISEEQKLSYAGRPSSASPAVGYSSKHIAQLKQLVEDALAL,not soluble
